Assay [1] deals with membrane-bound full-length human HVEM on stable HVEM-transfected HEK293F cells (clone no. 128) (human) (UniProt Q92956). The assay is described as follows: flow cytometry, 1:20, HEK293F clone no. 128. On the technique in general: In flow cytometry, cells or beads pass a laser one at a time.
Assay [2] has as its target membrane-bound human HVEM on Promega bioassay cells (NFκB-RE-luc human HVEM HEK293 reporter cells; CHO-K1 Activator cells) (human) (UniProt Q92956). Briefly: flow cytometry, 1:20, NFκB-RE-luc HVEM reporter cells.
For assay [3] the target is unchanged. Briefly: cell-based or functional assay.
Assay [4] addresses T1, membrane-bound full-length human HVEM on stable HVEM-transfected HEK293F cells (clone no. 128) (human, UniProt Q92956 39-283).
T1 construct: The same cDNA was also expressed on Sf9 insect cells; also called TNFRSF14; CD270
T1 sequence: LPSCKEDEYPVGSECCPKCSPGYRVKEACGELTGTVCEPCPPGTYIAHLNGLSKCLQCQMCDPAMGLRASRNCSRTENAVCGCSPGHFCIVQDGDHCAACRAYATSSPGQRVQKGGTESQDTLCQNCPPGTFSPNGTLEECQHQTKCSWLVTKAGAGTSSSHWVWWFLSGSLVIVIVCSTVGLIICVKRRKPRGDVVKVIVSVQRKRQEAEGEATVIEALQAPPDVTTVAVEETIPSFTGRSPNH
Briefly: FACS, his-LIGHT pre-bound, then Ab 20 µg/mL. As to the method:
Generation of human ‘full-length’ HVEM-transfected HEK293F cells (clone no. 128) is described in Example 1a. Displacement of pre-bound soluble human BTLA, soluble human CD160, soluble human LIGHT, and soluble human TNFβ from surface human HVEM-transfected cells was analysed by FACS analysis. To this end, stable human full-length HVEM-transfected HEK293F cells were put at 10×10⁶ cells/mL in ice-chilled phosphate-buffered saline containing 0.1% BSA (Sigma)/0.05% NaN₃ (PBS/BSA/NaN₃) supplemented with 50 μg/mL human IgGs (blocking possible Fcγ receptors; Sigma) for 10 minutes at 4° C. Then, 10 μL/tube (i.e., 0.1×10⁶ cells) of these cells were incubated without or with 50 μL soluble biotinylated human BTLA-human Fcγ fusion protein (Sino Biological Inc) at 2 μg/mL/tube, with soluble his-tagged human CD160 (Sino Biological Inc) at 20 μg/mL/tube, with soluble his-tagged human LIGHT (Sino Biological Inc) at 2 μg/mL/tube, or with soluble biotinylated human TNFβ (Sino Biological Inc) at 0.2 μg/mL/tube in PBS/BSA/NaN₃ for 30 minutes at 4° C. After this (i.e., without washing), cells were subsequently incubated with 50 μL purified chimeric mouse/human anti-HVEM antibody at 20 μg/mL/tube or a human IgG4/κ (Sigma) negative isotype control at 20 μg/mL/tube for 30 minutes at 4° C. After extensive washing in PBS/BSA/NaN₃, cells were incubated with 1:200 diluted PE-conjugated streptavidin (detection BTLA and TNFβ; Jackson ImmunoResearch) or with biotinylated mouse anti-his antibody (detection CD160 and LIGHT; R&D Systems) at 10 μg/mL for 30 minutes at 4° C. […] Residual binding of ligands BTLA, CD160, LIGHT and TNFβ on membrane human HVEM was measured using a flow cytometer (model FACSCalibur; BD Biosciences).

Assay [5] has as its target T1, membrane-bound full-length human HVEM …. Briefly: FACS titration on HVEM-HEK293F, half-maximum binding. The protocol: In order to determine the relative binding affinity of purified BTLA/HVEM blocking chimeric mouse/human anti-human HVEM antibodies no. 36H12, 45H6, 48H6, 11H7, and 49G4 for human HVEM, FACS analysis was used.
To this end, stable human full-length HVEM-transfected HEK293F cells (clone no. 128; see Example 1(a) above) were put at 10×10⁶ cells/mL in ice-chilled PBS containing 0.1% BSA (Sigma)/0.05% NaN₃ (PBS/BSA/NaN₃) supplemented with 50 μg/mL human IgGs (blocking possible Fcγ receptors; Sigma) for 10 minutes at 4° C. Then, 10 μL/tube (i.e., 0.1×10⁶ cells) of these cells were incubated with or without 100 μL titrated (in PBS/BSA/NaN₃) purified BTLA/HVEM blocking chimeric mouse/human anti-human HVEM antibody/tube for 30 minutes at 4° C. After extensive washing in PBS/BSA/NaN₃, cells were subsequently incubated with 1:200 diluted PE-conjugated goat anti-human IgG Fcγ-specific antibodies (Jackson ImmunoResearch) for 30 minutes at 4° C. After extensive washing in PBS/BSA/NaN₃, cells were fixed in 4% formaldehyde in PBS/BSA/NaN₃ for 30 minutes at 4° C. Binding (geo-mean fluorescence intensity) of chimeric mouse/human anti-human HVEM antibodies no. 36H12, 45H6, 48H6, 11H7, and 49G4 on membrane human HVEM was measured using a flow cytometer (FACSCalibur; BD Biosciences). For comparison, purified BTLA/HVEM blocking mouse anti-human HVEM antibody counterparts no. 36H12, 45H6, 48H6, 11H7, and 49G4 were run in parallel, and their binding was monitored as described in Example 2 (a).

Assay [6] has the same target. The assay is described as follows: FACS, biotinylated TNFβ pre-bound, then Ab 20 µg/mL. As to the method:
(§1) Generation of human ‘full-length’ HVEM-transfected HEK293F cells (clone no. 128) is described in Example 1a. Displacement of pre-bound soluble human BTLA, soluble human CD160, soluble human LIGHT, and soluble human TNFβ from surface human HVEM-transfected cells was analysed by FACS analysis. To this end, stable human full-length HVEM-transfected HEK293F cells were put at 10×10⁶ cells/mL in ice-chilled phosphate-buffered saline containing 0.1% BSA (Sigma)/0.05% NaN₃ (PBS/BSA/NaN₃) supplemented with 50 μg/mL human IgGs (blocking possible Fcγ receptors; Sigma) for 10 minutes at 4° C. Then, 10 μL/tube (i.e., 0.1×10⁶ cells) of these cells were incubated without or with 50 μL soluble biotinylated human BTLA-human Fcγ fusion protein (Sino Biological Inc) at 2 μg/mL/tube, with soluble his-tagged human CD160 (Sino Biological Inc) at 20 μg/mL/tube, with soluble his-tagged human LIGHT (Sino Biological Inc) at 2 μg/mL/tube, or with soluble biotinylated human TNFβ (Sino Biological Inc) at 0.2 μg/mL/tube in PBS/BSA/NaN₃ for 30 minutes at 4° C. After this (i.e., without washing), cells were subsequently incubated with 50 μL purified chimeric mouse/human anti-HVEM antibody at 20 μg/mL/tube or a human IgG4/κ (Sigma) negative isotype control at 20 μg/mL/tube for 30 minutes at 4° C. […] After extensive washing in PBS/BSA/NaN₃, cells were incubated with 1:200 diluted PE-conjugated streptavidin (detection CD160 and LIGHT; Jackson ImmunoResearch) for 30 minutes at 4° C. After extensive washing in PBS/BSA/NaN₃, cells were fixed in 4% formaldehyde in PBS/BSA/NaN₃ for 30 minutes at 4° C. Residual binding of ligands BTLA, CD160, LIGHT and TNFβ on membrane human HVEM was measured using a flow cytometer (model FACSCalibur; BD Biosciences).

Assay [7] shares this target. Briefly: FACS, biotinylated BTLA-Fc pre-bound, then Ab 20 µg/mL. As to the method:
as §1

The target is the same in assay [8]. Briefly: FACS, Ab 10 µg/mL then biotinylated BTLA on HVEM-HEK293F. As to the method: (§2) Generation of human ‘full-length’ HVEM-transfected HEK293F cells (clone no. 128) is described in Example 1a. Binding of soluble human BTLA, of soluble human CD160, of soluble human LIGHT, and of soluble human TNFβ on surface human HVEM-transfected cells was analysed by FACS analysis. To this end, stable human full-length HVEM-transfected HEK293F cells were put at 10×10⁶ cells/mL in ice-chilled phosphate-buffered saline containing 0.1% BSA (Sigma)/0.05% NaN₃ (PBS/BSA/NaN₃) supplemented with 50 μg/mL human IgGs (blocking possible Fcγ receptors; Sigma) for 10 minutes at 4° C. Then, 10 μL/tube (i.e., 0.1×10⁶ cells) of these cells were incubated with or without 100 μL purified chimeric mouse/human anti-HVEM antibody at 10 μg/mL/tube or a human IgG4/κ (Sigma) negative isotype control at 10 μg/mL/tube for 30 minutes at 4° C. After this (i.e., without washing), cells were subsequently incubated with 1 μg/mL soluble biotinylated human BTLA (Sino Biological Inc), with 10 μg/mL soluble his-tagged human CD160 (Sino Biological Inc), with 1 μg/mL soluble his-tagged human LIGHT (Sino Biological Inc), or with 0.1 μg/mL soluble biotinylated human TNFβ (Sino Biological Inc) in PBS/BSA/NaN₃ for 30 minutes at 4° C. After extensive washing in PBS/BSA/NaN₃, cells were incubated with 1:200 diluted PE-conjugated streptavidin (detection BTLA and TNFβ; Jackson ImmunoResearch) or with biotinylated mouse anti-his antibody (detection CD160 and LIGHT; R&D Systems) at 10 μg/mL for 30 minutes at 4° C. After extensive washing in PBS/BSA/NaN₃, cells were incubated with 1:200 diluted PE-conjugated streptavidin (detection CD160 and LIGHT; Jackson ImmunoResearch) for 30 minutes at 4° C. After extensive washing in PBS/BSA/NaN₃, cells were fixed in 4% formaldehyde in PBS/BSA/NaN₃ for 30 minutes at 4° C. Binding of ligands BTLA, CD160, LIGHT and TNFβ on membrane human HVEM was measured using a flow cytometer (model FACSCalibur; BD Biosciences). For comparison, purified BTLA/HVEM blocking mouse anti-human HVEM antibody counterparts no. 36H12, 45H6, 48H6, 11H7, and 49G4 at 10 μg/mL/tube and a mouse IgG1 (BD Biosciences) negative isotype control at 10 μg/mL/tube were run in parallel.

The target is the same in assay [9]. The assay is described as follows: FACS, Ab 10 µg/mL then biotinylated TNFβ on HVEM-HEK293F. The protocol:
as §2

Data on 5 molecules can be found in patent publication US20230052646A1 (JJP BIOLOGICS SP Z O O, published 2023).

Where only a bound is given, the exact number is not on record here.

Turning to “phycoerythrin (PE)-conjugated mouse anti-human HVEM antibody (clone eBioHVEM-122; eBioscience)”, the signal to noise ratio in [1] was 1000; in assay [2], below 5.
“soluble his-tagged human LIGHT (R&D Systems) (ligand)” registered an EC80 of LIGHT-induced NFκB-RE-luc activation in assay [3] of 0.3 µg/mL.

B1: chimeric mouse/human IgG4/kappa anti-human HVEM antibody no. 49G4 (antibody, V domains shown)
VH: EVQLQQSGAELVKPGASVKLSCRASGFNIKDTYMHWVKQRPEQGLEWIGRIDPARGNTKYDPKFQGKATITADTSSNTAYLQLSSLTSEDTAVYYCASAMDYWGQGTSVTVSS
VL: DVLMTQTPLSLPVSLGDQASISCRSSQSIVHSNGNTYLEWFLQKPGQSPKLLIYKVSNRFSGVPDRFSGSGSGTDFTLKISRVEAEDLGVYYCFQGSHVPLTFGAGTKLELKR
notes: 48/49 within the entry; Stabilized human IgG4 (S239P) already in the entry; also called chimeric 49G4
With B1, the entries for the “% displacement of pre-bound ligand” value in [4], in assay [6] and in assay [7] were below 20%, above 55% and above 95%, respectively. In assay [5], the EC50 was 0.312 µg/mL. Also, the results for the “% blocking of ligand binding” value in assay [8] and in assay [9] were above 95% and above 80%, respectively.

B2: chimeric mouse/human IgG4/kappa anti-human HVEM antibody no. 36H12 (antibody, V domains shown)
VH: EVQLQQSGAGLVKPGASVKLSCTASGFNIKDTYMHWVRQRPEQGLEWIGRIDPATANTKYDPKFQGKATLTTDTSSNTAYLQLSSLTSEDTAVYYCVTYGYDVSWFAYWGLGALVTVSA
VL: DVLMTQTPLSLPVSLGDQASISCRSSQSIVHSNGITYLEWYLQKPGQSPKLLIYKVSNRFSGVPDRFSGSGSGTDFTLKISRVEAEDLGVYYCFQGSHVPLTFGAGTKLELKR
notes: 16/17 within the entry; Stabilized human IgG4 (S239P) already in the entry; also called chimeric 36H12
With B2, the “% displacement of pre-bound ligand” value in [4] is below 20%; in assay [6] it was above 90%; in [7], above 95%. The molecule further gave an EC50 in assay [5] of 0.433 µg/mL. For the same molecule, the results for the “% blocking of ligand binding” value in [8] and in [9] were above 95% and above 94%, respectively.

B3: chimeric mouse/human IgG4/kappa anti-human HVEM antibody no. 45H6 (antibody, V domains shown)
VH: DVQLVESGGGLVQPGGSRKLSCAASGFTFSSFGMHWVRQAPEKGLEWVAYISSGNSNIYYVDTVKGRFTISRDNPKNTLFLQMTSLRSEDTAMYYCARKRAYGDYSGFSMDYWGQGTSVTVSS
VL: DIVMTQSQKFMSTSVGDRVSVTCKASQNVDTNVAWYQQKPGQSPKALIYSASYRYSGVPDRFTGSGSGTDFTLTISNVQSEDLAEYFCQQYNKFPLTFGGGTKLEIKR
notes: 24/25 within the entry; Stabilized human IgG4 (S239P) already in the entry; also called chimeric 45H6
B3: the “% displacement of pre-bound ligand” value in assay [4] is below 20%; in assay [6] it was above 90%; in assay [7], above 95%. The 50% effective concentration (EC50) in assay [5] is 0.306 µg/mL. Moreover, the “% blocking of ligand binding” value in [8] was above 95%; in assay [9] it was above 94%.

For orientation: EC50 means the midpoint of the concentration-response curve. Lower therefore signals an effect from little substance.
